Data from patent US20160264674A1 (ADURO BIOTECH HOLDINGS EUROPE B V, published 2016).
Like-named read-outs stand apart in the source and are kept apart here.

T1: FLAG-tagged human APRIL (human, UniProt O75888 105-250, limits assumed)
T1 construct: also called FLAG-tagged APRIL; FLAG-APRIL; not shown: FLAG tag
T1 sequence (looked up): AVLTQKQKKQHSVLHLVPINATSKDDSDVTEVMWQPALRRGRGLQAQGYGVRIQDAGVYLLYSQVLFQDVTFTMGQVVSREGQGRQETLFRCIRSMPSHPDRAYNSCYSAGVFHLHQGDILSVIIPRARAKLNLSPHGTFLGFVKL


Key:
[1] = target: T1, FLAG-tagged human APRIL; assay: FLAG-APRIL ELISA after 10 min at 65 °C, antibody at 0.316 µg/ml
Experimental: (§1) The plasmids encoding the VH and VL constructs were mixed in a 1:3 ratio (4 μg in total) and transiently expressed by transfection into HEK293T human embryonic kidney cells (HEK293T/17, ATCC-CRL-11268), using Lipofectamine 2000 transfection reagent (Invitrogen) following the manufacturer's instructions. Cell supernatants were harvested after 5 days and tested for expression of antibody and binding to APRIL using an enzyme-linked immuno assay (ELISA). In these ELISAs, all incubation steps were followed by a wash step with PBST (PBS with 0.01% Tween 20). Maxisorb 96-wells plates (Nunc) were coated with 0.5 μg/ml anti-FLAG (Sigma) or anti-IgG4 (Jackson laboratories) and incubated overnight at 4° C. Subsequently the anti-FLAG coated 96-wells plates were incubated with FLAG-tagged human APRIL for 1 hour at room temperature. Next, supernatants and dilutions thereof were incubated for 1 hour, which was followed by an incubation of 1 hour with mouse anti-human IgG HRP-conjugate (Southern Biotechnology).
(§2) To determine the effect of humanization on the stability of the antibodies, humanized antibodies were exposed to a range of temperatures for 10 minutes. Purified antibodies were diluted to 3.16 μg/ml and dilutions thereof in PBS. Next, these solutions were exposed to 65° C. or 70° C. and residual binding after heat treatment of the antibodies was measured using the FLAG-tagged APRIL ELISA assay as described before (see Table 6).
(§3) In addition, the stability of the substituted humanized antibodies was improved as determined using thermostability studies as described in Example 3 (see Table 9).

[2] = target: T1, FLAG-tagged human APRIL; assay: FLAG-APRIL ELISA after 10 min at 65 °C, antibody at 1 µg/ml
Experimental: as §1, §2, §3

[3] = target: T1, FLAG-tagged human APRIL; assay: competition ELISA: antibody premixed with FLAG-tagged APRIL, added to coated Fc-BCMA, anti-FLAG HRP
Experimental: (§4) A subset of humanized antibodies described above was selected for further analyses. Again, plasmids encoding the VH and VL constructs were mixed in a 1:3 ratio (32 μg) and transiently expressed by transfection into (8*10⁶) HEK293T human embryonic kidney cells (HEK293T), using Lipofectamine 2000 transfection reagent (Invitrogen) according to the manufacturer's instructions. Supernatants were harvested (10 ml) and antibodies were purified using MabSelect Sure Protein A resin according to the manufacturer's instructions (GE Healthcare). Buffer was exchanged for PBS using Zeba desalting columns (Thermo Scientific). The concentration of purified antibodies was determined based on OD280 (Nanodrop ND-1000). The binding of the purified antibodies to APRIL was established using the above described APRIL ELISA. The blocking capability of the humanized antibodies with BCMA and TACI receptors, was tested in a competition ELISA. In these ELISAs, all incubation steps were followed by a wash step with PBST (PBS with 0.01% Tween 20). Maxisorb 96-wells plates (Nunc) were coated with 0.5 μg/ml Fc-BCMA (R&D Systems) or Fc-TACI (R&D Systems) and incubated overnight at 4° C. Next, humanized antibodies and dilutions thereof were incubated, premixed with FLAG-tagged APRIL, for 1 hour, which was followed by an incubation of 1 hour with anti-FLAG HRP-conjugate (Sigma). Immunoreactivity was visualized with 100 μl TMB Stabilized Chromagen (Invitrogen). Reactions were stopped with 100 μl 0.5 M H2504 and absorbances were measured at 450 and 620 nm. Calculated EC₅₀ and IC₅₀ representing the concentration at which 50% of the total binding signal or blocking is observed are represented in Table 5.
The antibodies were tested for binding, blockade, and stability as described before.

[4] = target: T1, FLAG-tagged human APRIL; assay: FLAG-APRIL ELISA after 10 min at 70 °C, antibody at 0.316 µg/ml
[5] = target: T1, FLAG-tagged human APRIL; assay: FLAG-APRIL ELISA after 10 min at 70 °C, antibody at 1 µg/ml
[6] = target: T1, FLAG-tagged human APRIL; assay: FLAG-APRIL ELISA after 10 min at 70 °C, antibody at 3.16 µg/ml
[7] = target: T1, FLAG-tagged human APRIL; assay: ELISA: FLAG-tagged human APRIL captured on anti-FLAG plate, purified antibody titrated
[8] = target: T1, FLAG-tagged human APRIL; assay: FLAG-APRIL ELISA after 10 min at 65 °C, antibody at 3.16 µg/ml
Experimental: as §1, §2, §3

[9] = target: T1, FLAG-tagged human APRIL; assay: competition ELISA: antibody premixed with FLAG-tagged APRIL, added to coated Fc-BCMA, anti-FLAG HRP; remark: listed apart in the source
Experimental: as §4, with “Again,” for “A subset of humanized antibodies described above was selected for further analyses. Again,”, “Next, humanized antibodies and dilutions thereof were incubated, premixed with FLAG-tagged APRIL, for 1 hour, which was followed by an incubation of 1 hour with anti-FLAG HRP-conjugate (Sigma). Immunoreactivity was visualized with 100 μl TMB Stabilized Chromagen (Invitrogen).” left out, “5. […]” for “5.”

[10] = target: T1, FLAG-tagged human APRIL; assay: ELISA: FLAG-tagged human APRIL captured on anti-FLAG plate, purified antibody titrated; remark: listed apart in the source
[11] = target: T1, FLAG-tagged human APRIL; assay: FLAG-APRIL ELISA after 10 min at 70 °C, antibody at 0.316 µg/ml; remark: listed apart in the source
Experimental: as §1, §2

[12] = target: T1, FLAG-tagged human APRIL; assay: ELISA: FLAG-tagged human APRIL captured on anti-FLAG plate, purified antibody titrated; remark: listed apart in the source
Experimental: as §1
as §4, with “(Sigma).” for “(Sigma). Immunoreactivity was visualized with 100 μl TMB Stabilized Chromagen (Invitrogen). Reactions were stopped with 100 μl 0.5 M H2504 and absorbances were measured at 450 and 620 nm. Calculated EC₅₀ and IC₅₀ representing the concentration at which 50% of the total binding signal or blocking is observed are represented in Table 5.”

[13] = target: T1, FLAG-tagged human APRIL; assay: competition ELISA: antibody premixed with FLAG-tagged APRIL, added to coated Fc-BCMA, anti-FLAG HRP; remark: listed apart in the source
Experimental: as §4, with “Maxisorb 96-wells plates (Nunc) were coated with 0.5 μg/ml Fc-BCMA (R&D Systems) or Fc-TACI (R&D Systems) and incubated overnight at 4° C. Next, humanized antibodies and dilutions thereof were incubated, premixed with FLAG-tagged APRIL, for 1 hour, which was followed by an incubation of 1 hour with anti-FLAG HRP-conjugate (Sigma). Immunoreactivity was visualized with 100 μl TMB Stabilized Chromagen (Invitrogen).” left out

[14] = target: T1, FLAG-tagged human APRIL; assay: FLAG-APRIL ELISA after 10 min at 70 °C, antibody at 1 µg/ml; remark: listed apart in the source
Experimental: as §1, §2

[15] = target: T1, FLAG-tagged human APRIL; assay: FLAG-APRIL ELISA after 10 min at 70 °C, antibody at 3.16 µg/ml; remark: listed apart in the source
Experimental: as §1, §2

[16] = target: T1, FLAG-tagged human APRIL; assay: FLAG-APRIL ELISA after 10 min at 65 °C, antibody at 1 µg/ml; remark: listed apart in the source
Experimental: as §1, §2

[17] = target: T1, FLAG-tagged human APRIL; assay: FLAG-APRIL ELISA after 10 min at 65 °C, antibody at 0.316 µg/ml; remark: listed apart in the source
Experimental: as §1, §2

[18] = target: T1, FLAG-tagged human APRIL; assay: FLAG-APRIL ELISA after 10 min at 65 °C, antibody at 3.16 µg/ml; remark: listed apart in the source
Experimental: as §1, §2

| % residual binding after heat treatment (room temperature = 100%) [1] [%] | % residual binding after heat treatment (room temperature = 100%) [2] [%] | IC50 [3] [nM] | % residual binding after heat treatment (room temperature = 100%) [4] [%] | % residual binding after heat treatment (room temperature = 100%) [5] [%] | % residual binding after heat treatment (room temperature = 100%) [6] [%] | EC50 [7] [nM] | % residual binding after heat treatment (room temperature = 100%) [8] [%] | IC50 [9] [nM] | EC50 [10] [nM] | % residual binding after heat treatment (room temperature = 100%) [11] [%] | EC50 [12] [nM] | IC50 [13] [nM] | % residual binding after heat treatment (room temperature = 100%) [14] [%] | % residual binding after heat treatment (room temperature = 100%) [15] [%] | % residual binding after heat treatment (room temperature = 100%) [16] [%] | % residual binding after heat treatment (room temperature = 100%) [17] [%] | % residual binding after heat treatment (room temperature = 100%) [18] [%] | Binder |
| --- | --- | --- | --- | --- | --- | --- | --- | --- | --- | --- | --- | --- | --- | --- | --- | --- | --- | --- |
| 71 | 46.1 | 2.63 | 63 | 38.3 | 38 | 1.29 | 59.9 | 2.63 | 1.29 | – | – | – | – | – | – | – | – | VH14_1.VL15 (antibody, human IgG4, V domains shown, VH14 with R72S; rest is human IgG4 (S241P, Kabat) and human kappa; also called 14_1.15; antibody 14_1.15) VH: QVQLVQSGAEVKKPGASVKVSCKASGYTFTSYVMHWVRQAPGQGLEWMGYINPYNDAPKYNEKFKGRVTMTSDTSASTAYMELSSLRSDDTAVYYCARGLGYALYYAMDYWGQGTTVTVSS VL: DIVMTQSPSTLSASVGDRVTITCKASQNVGNNVAWYQQKPGKAPKLLISSASNRDSGVPSRFSGSGSGTEFTLTISSLQPDDFATYFCQQYNIYPFTFGQGTKLEIK |
| – | – | – | – | – | – | – | – | – | – | 82 | 121 | 4.3 | 62.4 | 59.1 | 55.1 | 74.6 | 63.1 | VH11.VL15 (antibody, human IgG4 S228P, kappa, V domains shown, Humanized IgG4 (S241P, Kabat) with human kappa, from HEK293T; also called 11.15) VH: QVQLVQSGAEVKKPGASVKVSCKASGYTFTSYVMHWVRQAPGQRLEWMGYINPYNDAPKYNEKFKGRVTITRDTSASTAYMELSSLRSEDTAVYYCARGLGYALYYAMDYWGQGTTVTVSS VL: DIVMTQSPSTLSASVGDRVTITCKASQNVGNNVAWYQQKPGKAPKLLISSASNRDSGVPSRFSGSGSGTEFTLTISSLQPDDFATYFCQQYNIYPFTFGQGTKLEIKR |
| – | – | 0.46 | – | – | – | 0.16 | – | 0.46 | 0.16 | 11.2 | – | – | 4.9 | 6.7 | 8.4 | 13.7 | 27.1 | hAPRIL.01A (antibody, mouse IgG1, kappa, V domains shown, Mouse antibody; also called mouse hAPRIL.01A antibody) VH: EVQLQQSGPELVKPGASVKMSCKASGYTFTSYVMHWVKQKPGQGLEWIGYINPYNDAPKYNEKFKGKATVTSDKSSGTAYMELSSLTSEDSAVYYCARGLGYALYYAMDYWGQGTSVTVSS VL: DIVMTQSQKFKSTSVGDRVSVTCKASQNVGNNVAWYQQKAGQSPKALISSASNRDSGVPDRFTGSGSGTDFTLTISNVQSEDLADYFCQQYNIYPFTFGSGTKLEIKR |
